Test results as given in the supplement of paper PMC10567573.

B1: ZNF511 (parent)
chain: EPLPVERDPAAGAAPFRFVARPVR

Variants of: B1
Test: protein stability index of a GFP-peptide fusion (GPS, HEK-293T) (PSI 1-6); higher = more stable
Details: c terminus: a fixed tail appended
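Note: lentivirally expressed fusions sorted by FACS into six bins by GFP to DsRed ratio, PSI derived from sequencing read proportions per bin multiplied by bin number.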

Row | Variant | protein stability index
1 | EPLPVRRDPAAGAAPFRFVARPVR [E6R] | 3.13
2 | EPLPVFRDPAAGAAPFRFVARPVR [E6F] | 3.14
3 | EPLPVARDPAAGAAPFRFVARPVR [E6A] | 2.92
4 | EPLPVKRDPAAGAAPFRFVARPVR [E6K] | 1.99
5 | EPLPVDRDPAAGAAPFRFVARPVR [E6D] | 1.68
6 | EPLPVNRDPAAGAAPFRFVARPVR [E6N] | 2.5
7 | EPLPVERDPAAGAARFRFVARPVR [P15R] | 3.78
8 | EPLPVERDPAAGAAEFRFVARPVR [P15E] | 3.04
9 | EPLPVERDPAAGAAAFRFVARPVR [P15A] | 3.76
10 | EPLPVERDPAAGAAQFRFVARPVR [P15Q] | 3.78
11 | EPLPVERDPAAGAADFRFVARPVR [P15D] | 4.21
12 | EPLPVERDPAAGAAPFRFVARKVR [P22K] | 2.22
13 | EPLPVERDPAAGAAPFRFVARNVR [P22N] | 2.31
14 | EPLPVERDPAAGAAPFRFVARIVR [P22I] | 3.15
15 | EPLPVERDPAAGAAPFRFVARHVR [P22H] | 1.93
16 | EPLPVERDPAAGAAPFRFVAREVR [P22E] | 2.62
17 | EPLPVERDPACGAAPFRFVARPVR [A11C] | 2.18
18 | EPLPVERDPARGAAPFRFVARPVR [A11R] | 1.78
19 | EPLPVERDPAIGAAPFRFVARPVR [A11I] | 3.02
20 | EPLPVERDPAYGAAPFRFVARPVR [A11Y] | 1.88
21 | EPLPVERDPANGAAPFRFVARPVR [A11N] | 1.75
22 | EPLPVERDPAEGAAPFRFVARPVR [A11E] | 3
23 | EPLPVERDPAKGAAPFRFVARPVR [A11K] | 2.34
24 | EPLPVERDPAFGAAPFRFVARPVR [A11F] | 2.02

Row | Variant | protein stability index
25 | EPLPVERDPATGAAPFRFVARPVR [A11T] | 2.08
26 | EPLPVERDPAGGAAPFRFVARPVR [A11G] | 1.83
27 | EPLPVERDPAQGAAPFRFVARPVR [A11Q] | 2.12
28 | EPLPVERDPAMGAAPFRFVARPVR [A11M] | 1.71
29 | EPLPVERDPAWGAAPFRFVARPVR [A11W] | 1.98
30 | EPLPVERDPIAGAAPFRFVARPVR [A10I] | 2.44
31 | EPLPVERDPVAGAAPFRFVARPVR [A10V] | 1.38
32 | EPLPVERDPEAGAAPFRFVARPVR [A10E] | 2.99
33 | EPLPVERDPQAGAAPFRFVARPVR [A10Q] | 2.11
34 | EPLPVERDPCAGAAPFRFVARPVR [A10C] | 1.88
35 | EPLPVERDPDAGAAPFRFVARPVR [A10D] | 2.46
36 | EPLPVERDPAAGAAPFRFVAPPVR [R21P] | 3.54
37 | EPLPVERDPAAGAAPFRFVAMPVR [R21M] | 1.95
38 | EPLPVERDPAAGAAPFRFVAVPVR [R21V] | 1.8
39 | EPLPVERDPAAGAAPFRFVAHPVR [R21H] | 2.18
40 | EPLPVERDPAAGAAPFRFVAQPVR [R21Q] | 2.96
41 | EPLPVERDPAAGAAPFRFVACPVR [R21C] | 1.7
42 | EPLPVERDPAAGAAPFRFVALPVR [R21L] | 2.07
43 | EPLPVERDPAAGAAPFRFVAYPVR [R21Y] | 1.76
44 | EPLPVERDPAAGAAPFRFVAIPVR [R21I] | 2.58
45 | EPLPVERDPAAGAAPFRFVAWPVR [R21W] | 1.41
46 | EPLPCERDPAAGAAPFRFVARPVR [V5C] | 2.39
47 | EPLPKERDPAAGAAPFRFVARPVR [V5K] | 1.77
48 | EPLPDERDPAAGAAPFRFVARPVR [V5D] | 2.54

Row | Variant | protein stability index
49 | EPLPEERDPAAGAAPFRFVARPVR [V5E] | 2.17
50 | EPLPAERDPAAGAAPFRFVARPVR [V5A] | 2.18
51 | EPLPMERDPAAGAAPFRFVARPVR [V5M] | 2.71
52 | EPLPRERDPAAGAAPFRFVARPVR [V5R] | 2.85
53 | EPLPVERDPAAGQAPFRFVARPVR [A13Q] | 2.6
54 | EPLPVERDPAAGEAPFRFVARPVR [A13E] | 2.62
55 | EPLPVERDPAAGIAPFRFVARPVR [A13I] | 1.66
56 | EPLPVERDPAAGGAPFRFVARPVR [A13G] | 2.48
57 | EPLPVERDPAAGHAPFRFVARPVR [A13H] | 2.43
58 | EPLPVERDPAAGPAPFRFVARPVR [A13P] | 2.37
59 | EPLPVERDPAAGCAPFRFVARPVR [A13C] | 2
60 | EPLPVERDPAAGWAPFRFVARPVR [A13W] | 1.77
61 | EPLPVERDPAADAAPFRFVARPVR [G12D] | 2.65
62 | EPLPVERDPAAYAAPFRFVARPVR [G12Y] | 1.96
63 | EPLPVERDPAAMAAPFRFVARPVR [G12M] | 2.38
64 | EPLPVERDPAACAAPFRFVARPVR [G12C] | 2.79
65 | EPLPVERDPAAAAAPFRFVARPVR [G12A] | 2.06
66 | EPLPVERDPAAIAAPFRFVARPVR [G12I] | 1.46
67 | EPLPVERDPAANAAPFRFVARPVR [G12N] | 2.27
68 | EPLPVERDPAAWAAPFRFVARPVR [G12W] | 1.67
69 | EPLPVERDPAAEAAPFRFVARPVR [G12E] | 2.09
70 | EPLPVERDPAAGAAPFRFVARPER [V23E] | 2.4
71 | EPLPVERDPAAGAAPFRFVARPTR [V23T] | 2.17
72 | EPLPVERDPAAGAAPFRFVARPFR [V23F] | 2.48

Row | Variant | protein stability index
73 | EPLPVERDPAAGAAPFRFVARPRR [V23R] | 2.8
74 | EPLPVERDPAAGAAPFRFVARPCR [V23C] | 3.19
75 | EPLPVERDPAAGAAPFRFVARPLR [V23L] | 2.73
76 | EPLPVEFDPAAGAAPFRFVARPVR [R7F] | 2.1
77 | EPLPVEHDPAAGAAPFRFVARPVR [R7H] | 2.57
78 | EPLPVEGDPAAGAAPFRFVARPVR [R7G] | 2.1
79 | EPLPVEWDPAAGAAPFRFVARPVR [R7W] | 1.05
80 | EPLPVELDPAAGAAPFRFVARPVR [R7L] | 2.82
81 | EPLPVESDPAAGAAPFRFVARPVR [R7S] | 2.34
82 | EPLPVEDDPAAGAAPFRFVARPVR [R7D] | 2.9
83 | EPLPVEYDPAAGAAPFRFVARPVR [R7Y] | 1.75
84 | EPLPVEKDPAAGAAPFRFVARPVR [R7K] | 2.12
85 | EPLPVENDPAAGAAPFRFVARPVR [R7N] | 2.32
86 | EALPVERDPAAGAAPFRFVARPVR [P2A] | 2.66
87 | EKLPVERDPAAGAAPFRFVARPVR [P2K] | 2.06
88 | ENLPVERDPAAGAAPFRFVARPVR [P2N] | 1.99
89 | EFLPVERDPAAGAAPFRFVARPVR [P2F] | 1.72
90 | EELPVERDPAAGAAPFRFVARPVR [P2E] | 2.23
91 | ETLPVERDPAAGAAPFRFVARPVR [P2T] | 2.1
92 | EPLPVERDPAAGAAPFRFVARPVY [R24Y] | 1.78
93 | EPLPVERDPAAGAAPFRFVARPVS [R24S] | 1.81
94 | EPLPVERDPAAGAAPFRFVARPVN [R24N] | 2.18
